Assay results as given in the supplement of paper PMC10567573.

B1: WDR88 (parent)
chain: LLTITKAHSNAISNCCFTFSGHFL

Variants of: B1
Test: protein stability index of a GFP-peptide fusion (GPS, HEK-293T) (PSI 1-6); higher = more stable
Details: c terminus: a fixed tail appended
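Further: lentivirally expressed fusions sorted by FACS into six bins by GFP to DsRed ratio, PSI derived from sequencing read proportions per bin multiplied by bin number.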

Protein stability index, by site and new letter:
S13: K 2.03; E 2.6; N 2.6; M 3.08; D 2.2; Y 2.48; A 2.17; I 3.51; P 3.02; T 3.02; V 2.2; G 2.7; H 3.44; L 3.23; Q 3.54; W 3.57; C 2.35; F 3.89; R 2.7
T18: Y 2.76; M 2.19; L 2.92; F 2.9; V 3.09; C 2.47; I 2.34; S 2.58; A 3.52; N 3.85; H 2.53; E 1.84; W 2.86; G 3.29; D 2.03; P 2.54; K 2.33; R 2.93
S9: T 2.15; V 4.49; Y 3.69; W 3.1; Q 3.42; R 1.77
F19: E 1.77; A 2.16; D 2.38; C 2.77
N14: M 2.99; P 3.55; F 3.06; E 2.25; W 2.37; C 3.23; H 3.22; Y 2.53; I 3.89; K 2.63; T 2.94; D 3.07; S 2.39; Q 1.82; L 4.15; V 2.52; A 1.44; G 3.72
C15: M 2.19; V 3.3; Q 3.52; N 2.98; H 2.78; A 4.06; R 3.77; F 3.46; I 3.44; E 2.58; W 2.31; K 2.11; S 2.97; Y 2.88; D 1.84; P 2.19; G 2.42; L 2.27; T 3.89
I12: P 2.55; L 3.56; E 1.77; T 2.98; G 2.96; M 3.38; S 3.14; K 2.4; D 1.96; Q 2.57; C 3.49; Y 2.33; N 2.49; H 3.51; F 3.3; R 2.74; A 2.3; V 3.69
C16: K 2.37; L 3.05; F 3.35; Q 2.41; P 2.25; T 2.9; A 3.4; S 2.44; G 2.75; R 1.87; N 4.12; Y 2.18; I 2.8; E 2.9; D 2.33; M 3.28; V 1.95; H 2.61
A11: G 3.47; Q 3.19; W 2.7; F 2.93; M 2.82; D 2.27; E 3.24; K 2.66; N 3.27; L 3.15; T 3.57; S 3.22; C 1.97; P 3.08; V 2.69; H 2.82
F17: H 1.42; Q 2.58; L 3.73; V 2.88; G 1.69; D 1.92; Y 3.26; W 1.45; K 2.43; A 2.38; M 2.29; C 1.84; T 2.66; E 2.35; I 3.65; P 2.13; S 1.37; N 2.58
N10: P 2.89; F 3.94; R 2.99; S 3.46; A 2.64; Q 3.31; I 3.1; V 2.49; D 3.19; K 2.12; T 3.75; H 2.75; C 4.06
